Test [1] concerns the target FKBP-C-term (bacteriophage T7) (UniProt P62942). The experiment in a line: cell-based or functional assay.
Test [2] deals with SspB-C-term (bacteriophage T7) (UniProt P0AFZ3). Nature of the test: cell-based or functional assay.
Test [3] has as its target T1, C-ZB (bacteriophage T7, UniProt P00573 180-883). Nature of the test: cell-based or functional assay.
The target in a further test is T2, C-term RNAP (WT) (bacteriophage T7, UniProt P00573 180-883).
T2 construct: C-terminal half of T7 RNAP split at position 179, without a fusion partner; expressed in E. coli; A start codon for the unfused half is not described; also called C-terminal split RNAP; C-terminal T7 RNAP
T2 sequence (P00573 180-883 limits assumed): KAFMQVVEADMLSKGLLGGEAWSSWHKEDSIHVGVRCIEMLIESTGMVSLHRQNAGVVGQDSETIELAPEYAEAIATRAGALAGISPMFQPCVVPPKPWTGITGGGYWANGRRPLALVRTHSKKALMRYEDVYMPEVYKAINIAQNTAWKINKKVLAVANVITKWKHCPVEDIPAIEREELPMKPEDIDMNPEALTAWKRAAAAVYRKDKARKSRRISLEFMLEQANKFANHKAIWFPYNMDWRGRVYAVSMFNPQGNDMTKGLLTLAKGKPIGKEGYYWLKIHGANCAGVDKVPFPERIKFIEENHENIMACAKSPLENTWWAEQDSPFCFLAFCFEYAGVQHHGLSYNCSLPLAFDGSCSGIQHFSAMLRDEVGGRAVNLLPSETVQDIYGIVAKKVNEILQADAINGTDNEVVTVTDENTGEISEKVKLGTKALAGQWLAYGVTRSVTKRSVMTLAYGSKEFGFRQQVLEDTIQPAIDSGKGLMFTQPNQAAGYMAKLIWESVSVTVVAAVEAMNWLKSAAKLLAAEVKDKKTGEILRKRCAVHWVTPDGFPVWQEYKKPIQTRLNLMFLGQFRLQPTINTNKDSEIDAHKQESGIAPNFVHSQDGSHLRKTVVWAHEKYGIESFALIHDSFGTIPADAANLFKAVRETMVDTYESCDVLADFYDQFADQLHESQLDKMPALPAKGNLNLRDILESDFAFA
The experiment in a line: E. coli luciferase transcription reporter (split T7 RNAP complementation). An excerpt: (§1) In vivo transcription assays of split RNAPs. N- and C-terminal halves of the RNAP were cloned into expression vectors, with the N-terminal RNAP under a constitutive promoter and the C-terminal RNAP under the arabinose-inducible promoter (Supplementary FIG. 1). S1030 cells (Carlson, et al., 2014) were transformed by electroporation with three plasmids: (i) an N-terminal RNAP expression plasmid, (ii) a C-terminal expression plasmid, and (iii) a reporter plasmid that encodes luciferase under control of the T7 promoter. The transformed cells were then plated onto agar plates (15 g/L in LB) with 50 μg/mL carbenicillin, 50 μg/mL spectinomycin, 33 μg/mL chloramphenicol, and 10 mM glucose. […] After growth with shaking at 37° C. for 2 h, 150 μL of each culture was transferred to a 96-well black wall, clear bottom plate (Costar), and luminescence and OD600 was measured on a Synergy H4 Hybrid Reader (BioTek). The data were analyzed by dividing the luminscence values by the background-corrected OD600 value, then subtracting out the background from the reporter vector alone. All values were then normalized to the wild-type split RNAP fused to ZA and ZB (data shown in FIG. 1d), which was assigned an arbitrary value of 100, allowing the values from each luminescence plot to be compared to one another. […]

Test [4] has as its target T1, C-ZB. Described as above.
Excerpt: as §1

T1 sequence (P00573 180-883, tags or fused parts left off): as the sequence (P00573 180-883 limits assumed) above
SspB-C-term (bacteriophage T7), sequence (P0AFZ3 6-116, tags or fused parts left off): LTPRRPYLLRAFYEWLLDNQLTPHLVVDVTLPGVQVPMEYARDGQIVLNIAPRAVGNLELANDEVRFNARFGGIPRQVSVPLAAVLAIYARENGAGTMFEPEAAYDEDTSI
FKBP-C-term (bacteriophage T7), sequence (P62942 1-108, tags or fused parts left off): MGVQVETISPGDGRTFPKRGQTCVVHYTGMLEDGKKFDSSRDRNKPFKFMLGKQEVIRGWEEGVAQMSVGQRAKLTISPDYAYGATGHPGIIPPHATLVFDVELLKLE

Molecule “N-term-FRB (from UniProt P42345 2021-2113)” had an RNA synthesis in the in vivo luciferase transcription reporter assay (E. coli), with rapamycin in test [1] of 340 fold.

Molecule N-term-iLID yielded a transcriptional output (luciferase reporter, E. coli), blue LED light against dark in test [2] of 26 fold.

B1: N-ZA (other)
chain: MNTINIAKNDFSDIELAAIPFNTLADHYGERLAREQLALEHESYEMGEARFRKMFERQLKAGEVADNAAAKPLITTLLPKMIARINDWFEEVKAKRGKRPTAFQFLQEIKPEAVAYITIKTTLACLTSADNTTVQAVASAIGRAIEDEARFGRIRDLEAKHFKKNVEEQLNKRVGHVYKGGSGSGSSALKKELQANKKELAQLKWELQALKKELAQ
With B1, the “transcription (luciferase reporter under the T7 promoter, E. coli)” value with C-ZB [3] was approximately 5 fold.

B2: N-term RNAP (WT) (enzyme)
chain: MNTINIAKNDFSDIELAAIPFNTLADHYGERLAREQLALEHESYEMGEARFRKMFERQLKAGEVADNAAAKPLITTLLPKMIARINDWFEEVKAKRGKRPTAFQFLQEIKPEAVAYITIKTTLACLTSADNTTVQAVASAIGRAIEDEARFGRIRDLEAKHFKKNVEEQLNKRVGHVYK
notes: N-terminal half of T7 RNAP split at position 179, without a fusion partner; expressed in E. coli; also called N-terminal split RNAP; N-terminal T7 RNAP
Take B2: the binding result with C-term RNAP (WT) and in the test with C-ZB [4] was “binds” in each case.

The values are drawn from patent publication US20200332371A1 (UNIVERSITY OF CHICAGO, published 2020).
